Source: paper PMC2654154, “Molecular Basis of Filamin A-FilGAP Interaction and Its Impairment in Congenital Disorders Associated with Filamin A Mutations” (PLoS ONE, 2009)
Each block holds one molecule with its values, some of them ahead of it.

Legend:
FilGAP (Homo sapiens) = FilGAP (Homo sapiens) (UniProt Q8N264); conditions: cited from earlier work
[1] = target: T1, FLAG-FLNa L2439M (disease-related) (human, UniProt P21333 1-2647, L2439M); assay: pull-down; full-length FilGAP or His-FilGAP lacking 649–725 (50 nM in Figure 1C) mixed with increasing amounts of wild-type or mutant FLAG-FLNa, precipitated with FLAG-specific mAb on agarose; immunoblot for FilGAP or the His tag; conditions: both partners purified
T1 construct: filamin A (FLNa), human, full length, transcript of the patient mutation 7315C>A; source: Sf9 cells, purified

[2] = target: the molecule itself; assay: SEC; Superose 6 10/300 GL, 20 mM Tris-HCl pH 7.4, 150 mM NaCl, 0.5 mM EGTA, 4°C; size from calibration with standards
[3] = target: T2, FLAG-tagged full-length FLNa (filamin A), wild type (human, UniProt P21333 1-2647); assay: pull-down; GST-His- or MBP-His-FilGAP constructs (various concentrations) with 25 nM FLAG-FLNa on FLAG-specific mAb M2 agarose; 50 mM Tris-HCl, 150 mM NaCl, 0.1% Triton X-100, 0.1 mM EGTA, pH 7.4, 1 h, 25°C; immunoblot for GST or MBP; conditions: both partners purified
T2 construct: filamin A (FLNa), human, full length; also called FLAG-FLNa; WT FLAG-FLNa; source: Sf9 insect cells (baculovirus), purified
T2 sequence (P21333 whole entry): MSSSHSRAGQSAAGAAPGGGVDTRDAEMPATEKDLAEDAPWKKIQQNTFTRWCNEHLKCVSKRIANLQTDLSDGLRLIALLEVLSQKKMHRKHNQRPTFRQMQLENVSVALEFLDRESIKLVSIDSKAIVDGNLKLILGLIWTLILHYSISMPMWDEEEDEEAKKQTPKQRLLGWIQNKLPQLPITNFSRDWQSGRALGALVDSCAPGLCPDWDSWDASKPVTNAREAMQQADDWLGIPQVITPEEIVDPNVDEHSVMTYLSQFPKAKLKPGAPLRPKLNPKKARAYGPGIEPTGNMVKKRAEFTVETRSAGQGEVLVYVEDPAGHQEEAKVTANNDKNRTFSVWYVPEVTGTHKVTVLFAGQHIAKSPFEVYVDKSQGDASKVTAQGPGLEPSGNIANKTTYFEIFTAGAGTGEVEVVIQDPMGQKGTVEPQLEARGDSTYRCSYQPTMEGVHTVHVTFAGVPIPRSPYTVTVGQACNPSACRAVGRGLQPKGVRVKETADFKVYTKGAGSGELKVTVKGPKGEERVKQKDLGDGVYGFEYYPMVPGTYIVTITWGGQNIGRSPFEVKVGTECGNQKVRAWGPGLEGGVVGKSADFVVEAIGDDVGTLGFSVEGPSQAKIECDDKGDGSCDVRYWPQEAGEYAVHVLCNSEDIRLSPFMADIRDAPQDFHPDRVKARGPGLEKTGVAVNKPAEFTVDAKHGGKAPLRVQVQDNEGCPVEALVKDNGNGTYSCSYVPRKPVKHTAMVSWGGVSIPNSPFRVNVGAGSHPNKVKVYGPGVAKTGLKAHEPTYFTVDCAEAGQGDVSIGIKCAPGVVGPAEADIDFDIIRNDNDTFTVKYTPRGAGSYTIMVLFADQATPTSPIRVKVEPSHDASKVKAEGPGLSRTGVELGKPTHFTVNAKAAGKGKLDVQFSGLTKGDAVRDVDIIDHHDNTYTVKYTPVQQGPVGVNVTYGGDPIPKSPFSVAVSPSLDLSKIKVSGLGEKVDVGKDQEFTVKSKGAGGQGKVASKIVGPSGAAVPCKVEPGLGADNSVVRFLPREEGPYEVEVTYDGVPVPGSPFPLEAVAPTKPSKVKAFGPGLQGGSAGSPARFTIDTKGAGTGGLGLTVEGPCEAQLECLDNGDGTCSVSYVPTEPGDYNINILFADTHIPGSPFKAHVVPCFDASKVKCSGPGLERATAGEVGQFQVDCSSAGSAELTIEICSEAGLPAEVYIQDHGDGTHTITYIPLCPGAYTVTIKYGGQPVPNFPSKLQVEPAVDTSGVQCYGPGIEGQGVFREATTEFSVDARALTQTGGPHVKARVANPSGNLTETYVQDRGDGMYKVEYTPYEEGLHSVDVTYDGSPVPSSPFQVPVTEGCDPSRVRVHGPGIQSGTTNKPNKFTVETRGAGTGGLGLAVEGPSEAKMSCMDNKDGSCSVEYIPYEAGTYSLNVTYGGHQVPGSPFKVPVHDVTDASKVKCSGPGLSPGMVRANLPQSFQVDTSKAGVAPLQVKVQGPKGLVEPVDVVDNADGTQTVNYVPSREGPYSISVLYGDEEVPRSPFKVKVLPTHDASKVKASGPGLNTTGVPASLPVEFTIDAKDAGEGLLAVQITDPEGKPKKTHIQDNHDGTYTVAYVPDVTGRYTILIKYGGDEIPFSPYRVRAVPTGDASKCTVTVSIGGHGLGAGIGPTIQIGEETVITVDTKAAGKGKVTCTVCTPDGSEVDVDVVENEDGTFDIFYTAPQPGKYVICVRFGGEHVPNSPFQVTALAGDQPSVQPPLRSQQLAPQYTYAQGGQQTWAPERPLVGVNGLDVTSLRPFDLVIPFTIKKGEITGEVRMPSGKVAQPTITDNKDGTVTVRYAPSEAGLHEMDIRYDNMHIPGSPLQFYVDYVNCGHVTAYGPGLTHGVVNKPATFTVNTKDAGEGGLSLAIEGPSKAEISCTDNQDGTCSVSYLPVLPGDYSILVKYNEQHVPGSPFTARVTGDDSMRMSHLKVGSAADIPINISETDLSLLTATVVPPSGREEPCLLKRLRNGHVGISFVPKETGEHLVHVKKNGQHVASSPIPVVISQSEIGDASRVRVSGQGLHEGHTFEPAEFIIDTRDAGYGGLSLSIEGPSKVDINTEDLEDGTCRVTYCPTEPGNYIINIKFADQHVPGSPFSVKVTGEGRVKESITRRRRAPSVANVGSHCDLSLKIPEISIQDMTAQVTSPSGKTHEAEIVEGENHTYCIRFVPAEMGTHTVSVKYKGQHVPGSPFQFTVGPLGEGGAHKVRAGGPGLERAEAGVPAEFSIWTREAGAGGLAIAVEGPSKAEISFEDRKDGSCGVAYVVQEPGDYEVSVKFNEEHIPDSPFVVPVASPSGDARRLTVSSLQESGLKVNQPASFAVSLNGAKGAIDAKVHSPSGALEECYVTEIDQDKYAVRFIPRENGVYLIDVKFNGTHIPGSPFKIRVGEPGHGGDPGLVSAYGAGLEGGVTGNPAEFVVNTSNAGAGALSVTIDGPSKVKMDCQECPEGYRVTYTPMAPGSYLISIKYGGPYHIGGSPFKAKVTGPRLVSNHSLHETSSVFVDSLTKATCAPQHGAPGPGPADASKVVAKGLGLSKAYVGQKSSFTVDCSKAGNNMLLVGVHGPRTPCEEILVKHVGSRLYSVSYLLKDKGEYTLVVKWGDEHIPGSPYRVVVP

T1 sequence (P21333 whole entry L2439M): as the sequence (P21333 whole entry) above, with L2439M counted along it

binding result [1]: binds
B1: full-length FilGAP, purified from Sf9 insect cells (natural protein, human, UniProt Q8N264 1-748, looked up)
chain: MEENNDSTENPQQGQGRQNAIKCGWLRKQGGFVKTWHTRWFVLKGDQLYYFKDEDETKPLGTIFLPGNKVSEHPCNEENPGKFLFEVVPGGDRDRMTANHESYLLMASTQNDMEDWVKSIRRVIWGPFGGGIFGQKLEDTVRYEKRYGNRLAPMLVEQCVDFIRQRGLKEEGLFRLPGQANLVKELQDAFDCGEKPSFDSNTDVHTVASLLKLYLRELPEPVIPYAKYEDFLSCAKLLSKEEEAGVKELAKQVKSLPVVNYNLLKYICRFLDEVQSYSGVNKMSVQNLATVFGPNILRPKVEDPLTIMEGTVVVQQLMSVMISKHDCLFPKDAELQSKPQDGVSNNNEIQKKATMGQLQNKENNNTKDSPSRQCSWDKSESPQRSSMNNGSPTALSGSKTNSPKNSVHKLDVSRSPPLMVKKNPAFNKGSGIVTNGSFSSSNAEGLEKTQTTPNGSLQARRSSSLKVSGTKMGTHSVQNGTVRMGILNSDTLGNPTNVRNMSWLPNGYVTLRDNKQKEQAGELGQHNRLSTYDNVHQQFSMMNLDDKQSIDSATWSTSSCEISLPENSNSCRSSTTTCPEQDFFGGNFEDPVLDGPPQDDLSHPRDYESKSDHRSVGGRSSRATSSSDNSETFVGNSSSNHSALHSLVSSLKQEMTKQKIEYESRIKSLEQRNLTLETEMMSLHDELDQERKKFTMIEIKMRNAERAKEDAEKRNDMLQKEMEQFFSTFGELTVEPRRTERGNTIWIQ
notes: FilGAP, human, full length; Tag-free FilGAP was prepared from His-FilGAP with TEV protease; also called Purified FilGAP; source: Sf9 cells, purified (Ni-NTA)

binding result [3]: binds
B3: GST-His-FilGAP 649–748 (C-terminal 100 residues) (domain or fragment, human, UniProt Q8N264 649-748, looked up)
chain: SSLKQEMTKQKIEYESRIKSLEQRNLTLETEMMSLHDELDQERKKFTMIEIKMRNAERAKEDAEKRNDMLQKEMEQFFSTFGELTVEPRRTERGNTIWIQ
notes: FilGAP, human, C-terminal 100 residues; also called GST-FilGAP fragment; source: E. coli (pGEX-4T-3-HT), purified

Continued, molecule first:

Molecule: filamin A (from UniProt P21333)
Kd (FilGAP (Homo sapiens)): 0.2 µM

B2: His-tag full-length FilGAP (natural protein, human, UniProt Q8N264 1-748, looked up)
chain: MEENNDSTENPQQGQGRQNAIKCGWLRKQGGFVKTWHTRWFVLKGDQLYYFKDEDETKPLGTIFLPGNKVSEHPCNEENPGKFLFEVVPGGDRDRMTANHESYLLMASTQNDMEDWVKSIRRVIWGPFGGGIFGQKLEDTVRYEKRYGNRLAPMLVEQCVDFIRQRGLKEEGLFRLPGQANLVKELQDAFDCGEKPSFDSNTDVHTVASLLKLYLRELPEPVIPYAKYEDFLSCAKLLSKEEEAGVKELAKQVKSLPVVNYNLLKYICRFLDEVQSYSGVNKMSVQNLATVFGPNILRPKVEDPLTIMEGTVVVQQLMSVMISKHDCLFPKDAELQSKPQDGVSNNNEIQKKATMGQLQNKENNNTKDSPSRQCSWDKSESPQRSSMNNGSPTALSGSKTNSPKNSVHKLDVSRSPPLMVKKNPAFNKGSGIVTNGSFSSSNAEGLEKTQTTPNGSLQARRSSSLKVSGTKMGTHSVQNGTVRMGILNSDTLGNPTNVRNMSWLPNGYVTLRDNKQKEQAGELGQHNRLSTYDNVHQQFSMMNLDDKQSIDSATWSTSSCEISLPENSNSCRSSTTTCPEQDFFGGNFEDPVLDGPPQDDLSHPRDYESKSDHRSVGGRSSRATSSSDNSETFVGNSSSNHSALHSLVSSLKQEMTKQKIEYESRIKSLEQRNLTLETEMMSLHDELDQERKKFTMIEIKMRNAERAKEDAEKRNDMLQKEMEQFFSTFGELTVEPRRTERGNTIWIQ
notes: FilGAP, human, full length; also called His-FilGAP; His-tag FilGAP; source: Sf9 cells, purified (Ni-NTA)
stoichiometry N [2]: 2
